Assay: soluble on expression in E. coli; label from the status in PepcDB or PDB records

| Sequence | soluble on expression in E. coli |
| --- | --- |
| RHQNYGVPWTPGETRQVWDVEARIEFNANGNEVKASLAAPHTQSGYTLIGESASSSGYGVSYINSDSGRRAEWSIRQAKGPQTIYYKAQFLVDPQAKVEPLPPAGDITPPTLSAPQQAAASALIDQAMSRSADNVTFARELIKTLNDPDSQNSALLLNDFDRTDALHKILLSAGVQSKIVGVIELEDGRRRQTIQPMVQVWSGKDWVLFSPNSEQKAVKPNLLVWDESNVSLLDLVGGKNSQVHFSMIKQEVTPQQATNNKVEADGLLNLSIHSLPLEEQAMFK | soluble |
| MAHHHHHHMQQLEQELSLRQSAIETREQQLEMVQLDGARGREAIMRERHSIEEVRRTVRVERCRQRRLWIHQIKEMNAKVLEQVRLLAEERKKNCEQATAKEDAAERAFAADIKMIEEYLPKLISLEDIPVNPEETDIIRRQFDEVFTQGEQTYLASAEEEQARKERLGRGLEVYRQRMLDDYVGKENGKLHDAEATERHLSSVVDQVLN | not soluble |
| MSLKRMVNVLFAGVLAMTVLSCGEEKKGYTLNGEISDVKDGMVYLKKYQDKSFIAVDSAVITDGTFKFEGVCTEPLAYGLTTFRDSKRPLVFFLDNEKMQLKMNESEKILTVTGSAINDLYAQNAPLTRQDGYSIDSLVAVHPASAVTPYFIVKDFAYKLNLEEMKALRAKLDASLDETMYVSQIDGFIKRMKDIQVGAVAPDFTLPDVDGNPVTLSGLRGKYVLIDFWASWCPDCRKENPNIVAAWNKYKDKNFTILGVSLDRKKEPWLAAIEKDQLAWTHVSDLKDWKSDAAVQYAIRWIPMNFLLDPNGVILAVGLEGEALQQKLDEVLKEGHHHHHH | not soluble |
| MSRPDQAKVTVAKGDIKAIAAALDMYKLDNFAYPSTQQGLEALVKKPTGNPQPKNWNKDGYLKKLPVDPWGNPYQYLAPGTKGPFDLYSLGADGKEGGSDNDADIGNWDN | soluble |
| MFSGIKGPNPSDLKGPELRILIVHARWNLQAIEPLVKGAVETMIEKHDVKLENIDIESVPGSWELPQGIRASIARNTYDAVIGIGVLIKGSTMHFEYISEAVVHGLMRVGLDSGVPVIFGLLTVLNEEQALYRAGLNGGHNHGNDWGSAAVEMGLKALY | soluble |
| MYLLLSLALVCTAAASSGYGIPANDDPSYSPPANDNPSYSAPANSDNRLYYDYSSRSSSSSSDSSEERECRKLREFDLPSELKSIGVKAKFSEMERRGKTYTTISCPSNTKTYAIIADKSGSNVSQGDITIQDAVLLATGVNIDVVGRCRGRRTTVVANNGDEVKIKTVVCVELSTSPDKY | not soluble |
| LEPRHAMLLRCRLPGGVITTKQWQAIDKFAGENTIYGSIRLTNRQTFQFHGILKKNVKPVHQMLHSVGLDALATANDMNRNVLCTSNPYESQLHAEAYEWAKKISEHLLPRTRAYAEIWLDQEKVATTDEEPILGQTYLPRKFKTTVVIPPQNDIDLHANDMNFVAIAENGKLVGFNLLVGGGLSIEHGNKKTYARTASEFGYLPLEHTLAVAEAVVTTQRDWGNRTDRKNAKTKYTLERVGVETFKAEVERRAGIKFEPIRPYEFTGRGDRIGWVKGIDDNWHLTLFIENGRILDYPARPLKTGLLEIAKIHKGDFRITANQNLIIAGVPESEKAKIEKIAKESGLMNAVTPQRENSMACVSFPTCPLAMAEAERFLPSFIDNIDNLMAKHGVSDEHIVMRVTGCPNGCGRAMLAEVGLVGKAPGRYNLHLGGNRIGTRIPRMYKENITEPEILASLDELIGRWAKEREAGEGFGDFTVRAGIIRPVLDPARDLWD | soluble |
| MQVKILDTTLRDGEQTPGVSLSVEQKVMIAEALDNLGVDIIEAGTAIASEGDFQAIKEISQRGLNAEICSFARIKREDIDAAADAGAESIFMVAPSSDIHINAKFPGKDRDYVIEKSVEAIEYAKERGLIVEFGAEDASRADLDFVIQLFKRAEEAKADRITFADTVGVLSPEKMEEIVRKIKAKVKLPLAIHCHDDFGLATANTIFGIKAGAEEFHGTINGLGERAGNAAIEEVVIALEYLYGIKTKIKKERLYNTSKLVEKLSRVVVPPNKPIVGDNAFTHESGIHTSALFRDAKSYEPISPEVVGRKRVIVLGKHAGRASVEAIMNELGYKATPEQMKEILARIKEIGDKGKRVTDADVRTIIETVLQIKREKKVKLEDLAIFSGKNVMPMASVKLKIDGQERIEAAVGLGPVDAAINAIRRAIKEFADIKLVSYHVDAITGGTDALVDVVVQLKKDNKIVTARGARTDIIMASVEAFIEGINMLF | not soluble |
| SLYDGDCPLCMREVNMLMERNEKHGTIKFVDISSNDYSPEDNQGLDYKTVMGQIHAIQSDGNVVKGVEAFRRLYEEVGLGWVYTITKFEPIGKLADVVYDVWAKYRLQVTGRPSIEAILEARKKDKVGNKGYRFSVVVTFAR | soluble |

From the DeepSol protein solubility set
